The results in this text go back to US7985736B2, “High throughput screen utilizing newly discovered intramolecular neuronal calcium channel interactions to discover new analgesics” (The John Hopkins University, priority 2004, dated 2011).

Values joined by “and” are separate entries in the source; they are usually repeats but may differ in a detail not shown here. Equal values may be shown once.

This data set addresses T1, N-type (α1B) Ca2+ channels (Homo sapiens, UniProt Q00975).
T1 construct: transferred by EcoRI and Bgl II sites into the full-length α1B construct; expressed in transfected cells; host or cells: HEK293
Briefly: Whole-cell G/Q analysis and prepulse facilitation of recombinant N-type channels coexpressed with peptide in HEK293 cells. In kind it is cell-based. Particulars: for Effect on G/Q slope (Gmax-Qmax relation), with Gβγ: peptide coexpressed with channels and Gβγ, Gmax after 100 mV prepulse. The text has this:
FIG. 3A illustrates an approach for N-type channels without Gβγ coexpression. Exemplar currents activated quickly and were barely facilitated by strong prepulse depolarization (FIG. 3A, left). The slight residual prepulse facilitation reflects basal endogenous Gβγ activation. To estimate open probability, two intermediary parameters were specified. First, to gauge the number of channels in a cell (Nchannel), the channel gating current at the reversal potential for ionic current were isolated (FIG. 3A, middle left) (Jones et al., 1999). The area under this current yields the maximal gating charge Qmax, where Qmax=Nchannel×qmax, and qmax is the maximal gating charge per channel. Second, Gmax for a given cell, the maximal ionic current conductance determined as the slope of the peak current-voltage relation at depolarized potentials were determined (FIG. 3A, middle right, line). Here and throughout, current-voltage relations were determined after a 100 mV prepulse, which transiently relieves all G protein inhibition (Colecraft et al., 2000), thus eliminating these inhibitory effects in the estimate of Gmax. Accordingly, Gmax=Nchannel×Po,max×g, where Po,max is the maximal channel open probability at saturating de-polarization, and g is the conductance of a single open channel. In combination, then, a plot of Gmax versus Qmax for multiple cells ([…]) would describe a linear relation with slope equal to Po,max×g/qmax. Because g and qmax are unchanged by G protein modulation (Colecraft et al., 2001; Jones et al., 1997; Patil et al., 1996), this slope (G/Q=0.44±0.03 nS/fC) is proportional to Po,max . . . FIG. 3B documents the supporting results for N-type channels coexpressed with Gβγ. Gmax determined after prepulse de-polarization, when plotted against Qmax, specifies an identical slope to that without Gβγ (FIG. 3B, right, G/Q=0.43±0.04 nS/fC). […] Free NTB peptide with α1B channels. Initially, an NTB-CFP peptide was employed to visually confirm expression was coexpressed. […] By contrast, coexpressing channels with NTB-CFP and Gβγ produced remarkable effects (FIG. 3D). […] More telling were small ionic current amplitudes despite gating current magnitudes on par with controls (FIG. 3D, middle panels). Consequently, there was a significant ^w6-fold depression of the Gmax-Qmax plot (FIG. 3D, right). If NTB-CFP were simply chelating Gβγ (FIG. 2C), the G/Q slope would be unchanged from control. Instead, the suppression of G/Q indicates constitutive inhibition of channel opening.
Cells were transiently transfected and cultured in 10 cm plates (Brody et al., 1997). For 2+Ca^2+ channels, 8 μg was used of each of cDNAs of the desired a1, rat brain β2a (Perez-Reyes et al., 1992), and rat brain a^28 (Tomlinson et al., 1993) subunits; along with 2 μg T-antigen cDNA. N-type α1B, human origin (NM000718); L-type α1C, rabbit (Wei et al., 1991) (X15539). Gβγ coexpressed with 4 μg each of Gβ1 (Sugimoto et al., 1985) and Gγ2 (Gautam et al., 1990). For coexpression of N-terminal peptides, channel subunit cDNA reduced to 6 μg, while adding 14 μg peptide cDNA. For receptor experiments, 0.5 μg cDNA for m2R (below) applied with other cDNAs.
Whole-cell current records were made with Axopatch 200B (Axon Instruments, Calif.), 1-3 days posttransfection. Pipets, 1.5-3 MΩ before 60-75% series resistance compensation. Internal solution: 135 mM CsMeSO4, 5 mM CsCl, 10 mM EGTA, 10 mM HEPES, 1 mM MgCl2, and 4 mM MgATP. External solution: 150 mM TEAMeSO4, 10 mM HEPES, 2 mM CaCl2, and 1 mM MgCl2. During constitutive inhibition (or as noted for some chimeras), 20 mM BaCl2 was substituted for 2 mM CaCl2, and the resulting solution was diluted 1.08×. To compare across external solutions, a conversion factor of 3.18 was used. Currents and conductances with 20 mM Ba^2+ were thus scaled×1/3.18 to facilitate uniform comparison of values, as if all data had been collected with 2 mM Ca^2+. When applied, conversion is denoted by asterisk (*). […]

T1 sequence (Q00975 whole entry, other chains not shown): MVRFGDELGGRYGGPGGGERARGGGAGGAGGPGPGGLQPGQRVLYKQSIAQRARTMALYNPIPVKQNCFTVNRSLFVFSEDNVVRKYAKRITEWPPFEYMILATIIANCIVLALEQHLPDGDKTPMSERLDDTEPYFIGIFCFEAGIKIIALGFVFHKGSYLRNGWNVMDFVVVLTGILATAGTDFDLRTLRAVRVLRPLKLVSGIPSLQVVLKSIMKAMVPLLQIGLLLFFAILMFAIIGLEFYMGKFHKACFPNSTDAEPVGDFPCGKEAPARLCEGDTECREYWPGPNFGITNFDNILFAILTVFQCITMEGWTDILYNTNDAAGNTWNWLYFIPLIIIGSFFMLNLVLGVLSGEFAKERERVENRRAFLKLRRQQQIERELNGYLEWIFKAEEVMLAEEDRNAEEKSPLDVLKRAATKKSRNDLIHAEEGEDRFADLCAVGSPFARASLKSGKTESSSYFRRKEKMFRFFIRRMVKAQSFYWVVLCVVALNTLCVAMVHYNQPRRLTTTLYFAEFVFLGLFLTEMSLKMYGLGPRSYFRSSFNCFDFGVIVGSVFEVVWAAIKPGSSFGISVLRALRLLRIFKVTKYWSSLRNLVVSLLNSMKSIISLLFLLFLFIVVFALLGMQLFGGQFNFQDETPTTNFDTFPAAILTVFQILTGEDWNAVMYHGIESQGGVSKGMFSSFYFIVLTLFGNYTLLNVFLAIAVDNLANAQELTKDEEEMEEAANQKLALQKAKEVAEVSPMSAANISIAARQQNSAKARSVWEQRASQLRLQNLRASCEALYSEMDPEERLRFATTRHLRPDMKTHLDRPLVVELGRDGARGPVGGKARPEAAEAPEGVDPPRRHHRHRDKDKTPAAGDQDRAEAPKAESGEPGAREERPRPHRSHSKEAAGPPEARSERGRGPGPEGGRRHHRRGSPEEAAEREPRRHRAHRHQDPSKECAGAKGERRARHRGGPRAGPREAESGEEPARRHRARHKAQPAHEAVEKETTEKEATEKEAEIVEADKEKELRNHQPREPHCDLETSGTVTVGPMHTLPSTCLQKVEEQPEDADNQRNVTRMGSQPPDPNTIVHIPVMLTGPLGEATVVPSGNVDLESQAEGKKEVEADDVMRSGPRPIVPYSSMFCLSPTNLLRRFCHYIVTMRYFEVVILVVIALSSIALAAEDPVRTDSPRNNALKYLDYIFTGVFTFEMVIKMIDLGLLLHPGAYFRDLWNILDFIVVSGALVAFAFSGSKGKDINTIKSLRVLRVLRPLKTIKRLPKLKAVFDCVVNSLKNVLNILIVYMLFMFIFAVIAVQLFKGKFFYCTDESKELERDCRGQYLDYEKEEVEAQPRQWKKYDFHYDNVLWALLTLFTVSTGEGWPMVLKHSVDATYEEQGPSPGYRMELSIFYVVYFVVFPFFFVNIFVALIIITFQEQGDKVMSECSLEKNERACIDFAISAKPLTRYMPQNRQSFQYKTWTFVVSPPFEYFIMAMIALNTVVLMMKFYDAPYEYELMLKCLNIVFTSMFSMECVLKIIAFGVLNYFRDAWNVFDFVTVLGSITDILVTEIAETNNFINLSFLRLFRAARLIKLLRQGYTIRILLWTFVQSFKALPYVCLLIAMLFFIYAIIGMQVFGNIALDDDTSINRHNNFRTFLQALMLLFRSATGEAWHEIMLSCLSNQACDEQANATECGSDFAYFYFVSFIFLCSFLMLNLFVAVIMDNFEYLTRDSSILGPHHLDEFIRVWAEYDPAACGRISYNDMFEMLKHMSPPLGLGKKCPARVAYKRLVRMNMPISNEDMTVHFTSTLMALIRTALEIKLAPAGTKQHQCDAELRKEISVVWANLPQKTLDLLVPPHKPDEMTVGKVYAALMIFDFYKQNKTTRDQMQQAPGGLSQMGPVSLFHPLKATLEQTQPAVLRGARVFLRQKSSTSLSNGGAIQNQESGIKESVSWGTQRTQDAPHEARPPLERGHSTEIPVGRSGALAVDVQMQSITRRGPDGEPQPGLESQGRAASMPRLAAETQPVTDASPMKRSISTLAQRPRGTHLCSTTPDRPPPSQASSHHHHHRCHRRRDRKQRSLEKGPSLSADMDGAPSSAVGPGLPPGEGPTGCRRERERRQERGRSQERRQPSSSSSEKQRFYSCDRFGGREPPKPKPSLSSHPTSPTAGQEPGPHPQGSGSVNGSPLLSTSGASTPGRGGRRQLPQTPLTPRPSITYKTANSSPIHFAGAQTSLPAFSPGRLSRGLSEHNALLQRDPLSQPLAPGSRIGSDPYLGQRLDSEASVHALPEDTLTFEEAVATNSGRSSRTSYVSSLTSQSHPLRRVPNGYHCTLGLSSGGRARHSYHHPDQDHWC
T1 sequence (P54290 25-944 partner limits assumed, other chains not shown): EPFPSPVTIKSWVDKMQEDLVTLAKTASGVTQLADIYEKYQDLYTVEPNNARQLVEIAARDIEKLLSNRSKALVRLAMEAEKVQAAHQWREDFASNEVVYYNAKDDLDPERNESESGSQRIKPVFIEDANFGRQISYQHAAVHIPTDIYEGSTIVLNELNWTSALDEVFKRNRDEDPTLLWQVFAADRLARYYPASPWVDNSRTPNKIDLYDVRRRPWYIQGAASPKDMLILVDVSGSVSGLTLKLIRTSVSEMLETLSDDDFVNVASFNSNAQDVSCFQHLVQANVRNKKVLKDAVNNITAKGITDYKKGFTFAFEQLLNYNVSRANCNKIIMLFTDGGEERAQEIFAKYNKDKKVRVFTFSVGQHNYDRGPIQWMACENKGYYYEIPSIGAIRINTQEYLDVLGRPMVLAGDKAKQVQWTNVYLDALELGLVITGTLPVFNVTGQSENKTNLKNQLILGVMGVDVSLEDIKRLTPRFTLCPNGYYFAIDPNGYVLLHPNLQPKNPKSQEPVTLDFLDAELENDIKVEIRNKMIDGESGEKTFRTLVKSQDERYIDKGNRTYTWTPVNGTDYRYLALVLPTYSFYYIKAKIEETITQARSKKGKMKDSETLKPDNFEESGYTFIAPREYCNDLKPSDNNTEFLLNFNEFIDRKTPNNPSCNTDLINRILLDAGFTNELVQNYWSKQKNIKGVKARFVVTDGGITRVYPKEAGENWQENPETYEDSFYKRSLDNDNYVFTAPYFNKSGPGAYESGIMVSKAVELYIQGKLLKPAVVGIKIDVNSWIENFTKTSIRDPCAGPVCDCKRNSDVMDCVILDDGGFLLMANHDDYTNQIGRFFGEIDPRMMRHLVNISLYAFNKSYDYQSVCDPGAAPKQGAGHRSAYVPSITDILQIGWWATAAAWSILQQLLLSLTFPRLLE
T1 sequence (P54290 945-1091 partner limits assumed, other chains not shown): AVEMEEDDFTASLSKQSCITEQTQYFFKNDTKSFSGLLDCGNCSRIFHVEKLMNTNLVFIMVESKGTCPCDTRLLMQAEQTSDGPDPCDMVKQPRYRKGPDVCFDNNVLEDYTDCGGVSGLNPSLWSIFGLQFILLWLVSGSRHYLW

With “NTC: NH3 terminus of L-type channel α1C subunit, free peptide [reference compound]”, the “Effect on G/Q slope (Gmax-Qmax relation), with Gβγ” value is “had no effect”. Under “peptide coexpressed with channels, absent Gβγ”, the “Effect on G/Q slope and currents, without Gβγ” value is listed as “had no effect”.

B1: NTB: NH3 terminus of N-type channel α1B subunit, residues 1-95, expressed as free peptide (SEQ ID NO.: 1) (protein, listed as Homo sapiens)
chain: MVRFGDELGGRYGGPGGGERARGGGAGGAGGPGPGGLQPGQRVLYKQSIAQRARTMALYNPIPVKQNCFTVNRSLFVFSEDNVVRKYAKRITEWP
Take B1: the “DF (prepulse facilitation)” value was 2.64±0.18; the “Induction time of constitutive inhibition after receptor activation” value was 10 to 15 min and ~10 min; the “Reversal of constitutive inhibition on removal of carbachol” value was “did not reverse inhibition”; the “Effect on G/Q slope (Gmax-Qmax relation), with Gβγ” value is recorded as “identical to those obtained with NTB-CFP”. The “Functional profile with m2R, absent carbachol” value (channels + m2R + NTB peptide, 0 min CCH) is on record as “indistinguishable from control N-type channels”. Also, the “G/Q slope with m2R and carbachol” value (channels + m2R + free NTB peptide, carbachol ≧30 min (50 μM CCH)) is “marked suppression of the G/Q slope”. The “Conversion to constitutively reluctant channels” value (deduced from DF˜4 via FIG. 7B model, free NTB with Gβγ) is recorded as around 75%. For the same molecule, the “DF (degree of prepulse facilitation)” value (free NTB with Gβγ) was around 4.
